Laboratory results as given in article PMC12858348, “Structural basis underlying the autoinhibition of the formin FHOD1 and its phosphorylation-dependent activation” (The Journal of Biological Chemistry, 2025).
Changes are numbered by the printed parent chain. Numbers in names are those of the source.

T1: His-tagged FHOD1-N3 (1–360) (human, UniProt Q9Y613 1-360)
T1 construct: human FHOD1, residues 1-360 (GBD and FH3 domains), from human FHOD1 cDNA in pProEX-HTb; also called FHOD1-N-WT; N-terminal region
T1 sequence (looked up): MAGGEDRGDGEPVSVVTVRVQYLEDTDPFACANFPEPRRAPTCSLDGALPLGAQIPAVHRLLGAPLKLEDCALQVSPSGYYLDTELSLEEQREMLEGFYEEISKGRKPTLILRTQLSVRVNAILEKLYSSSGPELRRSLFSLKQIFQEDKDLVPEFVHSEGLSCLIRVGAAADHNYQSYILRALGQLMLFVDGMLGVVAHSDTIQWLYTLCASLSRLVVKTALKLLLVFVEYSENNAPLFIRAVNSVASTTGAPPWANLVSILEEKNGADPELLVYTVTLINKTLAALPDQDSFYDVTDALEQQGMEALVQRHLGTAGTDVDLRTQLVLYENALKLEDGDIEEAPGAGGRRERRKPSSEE

B1: GST-fused FHOD1–DAD (1081–1145) (domain or fragment, human, UniProt Q9Y613 1081-1145, looked up)
chain: MPTVGPSTASPEEPPGSSLPSDTSDEIMDLLVQSVTKSSPRALAARERKRSRGNRKSLRRTLKSG
notes: human FHOD1, residues 1081-1145 (diaphanous autoregulatory domain), in pGEX-6P; also called DAD-WT; GST-DAD; source: E. coli BL21, purified (glutathione-Sepharose-4B)
B2: GST-fused FHOD1–DAD (1081–1145) M1108A (domain or fragment, human, UniProt Q9Y613 1081-1145, looked up)
chain: B1 chain with M28A
notes: human FHOD1, residues 1081-1145 (DAD), M1108A in the core motif; also called DAD-M1108A; source: E. coli BL21, purified (glutathione-Sepharose-4B)

Biological target: T1, His-tagged FHOD1-N3 (1–360)
Test: pull-down; 20 μg GST fusion protein (GST-DAD 1.25 μM) and 20 μg His-tagged protein (His-FHOD1-N3 1.0 μM) in 500 μl PBS pH 7.4 with 0.1% Triton X-100; glutathione-Sepharose 4B, 1 h at 4 °C; three washes; eluted with 10 mM glutathione; SDS-PAGE, CBB staining, densitometry
Conditions: both partners purified

Binder	binding result
B1	binds
B2	binds
